Results taken from US20040058394A1 (Biogen, published 2004).

Columns and labels:
[1] = target: T1, lymphotoxin beta receptor (LT-β-R) (human, UniProt P36941 31-435); experiment: FACS staining of HT-29 cells with conditioned medium, PE anti-human IgG
T1 construct: whole, on cells; also called LT-β receptor
Protocol: Expression vectors were co-transfected into 293-EBNA cells and transfected cells were tested for antibody secretion and specificity (empty vector-transfected cells served as negative control). […] To examine the individual contributions of each of these changes, new heavy chain expression vectors were constructed. Plasmid pAND089, the F37V variant of VH#2, was made by subcloning the 311 bp NotI-PstI fragment from pAND075, the 126 bp PstI-HindIII fragment from pAND071, and the 1.21 kb HindIII-NotI fragment from the plasmid pEAG964 into the NotI site of the pCEP4 EBV expression vector-derived plasmid pCH269. Plasmid pAND090, the V93A variant of VH#2, was made by subcloning the 311 bp NotI-PstI fragment from pAND071, the 126 bp PstI-HindIII fragment from pAND075, and the 1.21 kb HindIII-NotI fragment from the plasmid pEAG964 into the NotI site of the pCEP4 EBV expression vector-derived plasmid pCH269. These H2/H3 chimeric heavy chains were co-transfected into 293-EBNA cells with VL#2 or VL#3. […] The pAND076 and pAND090 pairing was designated huCBE11 #4 (Table 1 supra).
Conditioned medium from transiently transfected cells was used to stain HT-29 cells by incubating for 30 min on ice, washing cells twice with FACS buffer (PBS with 5% FBS and 0.05% sodium azide), staining with PE-conjugated anti-human IgG (H+L), Jackson ImmunoResearch Laboratories, Inc., for 30 min on ice in FACS buffer, washing cells twice with FACS buffer, and resuspending in FACS buffer for analysis.

[2] = target: T1, lymphotoxin beta receptor (LT-β-R); experiment: FACS titration on HT-29 cells, 4°C, non-specific binding subtracted, four parameter fit (functional affinity)
Protocol: HuCBE11 #4 anti-LTβR antibody and humanized anti-CD40L as a negative control were diluted in PBS and a 12 point serial 1:4 dilution was made to a final concentration range of 2.37 pM-10 μM. 100 μL cell suspension and 100 μL antibody dilution were added together to each well of a 96 well V-bottom microtiter plate. The antibody and the cells were incubated at 4° C. for 2 hours. The plate was centrifuiged at 1000 rpm (110×g) for 10 minutes at 4° C. The supernatant was discarded and the cell pellet was washed with cold PBS six times.
Goat-anti human IgG-phycoerythrin conjugate (Jackson Immunoresearch) was diluted 1:100 in PBS and 200 μL was added to each well. The cells were incubated with this secondary antibody for one hour at 4° C., centrifuged as described above, and washed once in cold PBS. The cells were then transferred to polystyrene test tubes. Fluorescence intensity was measured on a FACS Calibur instrument (Beckton Dickinson).
These specific fluorescence intensity values were then plotted against huCBE11 #4 concentrations on a log scale. The resulting curve is bell shaped and symmetrical, and reflects self-inhibition of the antibody binding at high concentrations. The left half of this curve was fit to a four parameter equation to find the functional affinity of the antibody. The resulting curve fit gives an EC₅₀ value of 60 pM for the huCBE11 #4 binding to HT-29 cells.

T1 sequence (P36941 31-435): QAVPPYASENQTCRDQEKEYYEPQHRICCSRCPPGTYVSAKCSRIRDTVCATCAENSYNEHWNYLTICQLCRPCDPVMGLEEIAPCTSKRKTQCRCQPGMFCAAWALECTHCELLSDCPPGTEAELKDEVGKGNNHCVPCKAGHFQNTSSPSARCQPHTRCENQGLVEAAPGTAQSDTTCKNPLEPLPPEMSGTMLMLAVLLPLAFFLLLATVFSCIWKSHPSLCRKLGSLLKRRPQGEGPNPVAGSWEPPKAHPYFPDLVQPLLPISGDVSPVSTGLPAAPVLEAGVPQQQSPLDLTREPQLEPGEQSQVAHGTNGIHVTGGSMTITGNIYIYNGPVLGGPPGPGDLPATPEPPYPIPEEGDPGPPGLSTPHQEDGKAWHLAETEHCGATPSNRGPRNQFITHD

B1: L2/V93A H2 (VL#2 with the V93A variant of VH#2) (antibody, V domains shown)
VH: EVQLVESGGGLVKPGGSLRLSCAASGFTFSDYYMYWFRQAPGKGLEWVATISDGGSYTYYPDSVKGRFTISRDNAKNSLYLQMSSLRAEDTAVYYCAREENGNFYYFDYWGQGTTVTVSS
VL: DIQMTQSPSSLSASVGDRVTITCKAGQDIKSYLSWYQQKPWKAPKILIYYATRLADGVPSRFSGSGSGTDYTLTISSLQPEDFATYYCLQHGESPWTFGGGTKLEIK
notes: Human IgG1 / kappa constant regions; also called pAND072/pAND090
[1]
  Relative MFI: 0.75 MFI normalized to chCBE11

B2: huCBE11 #4 (VL#3 with VH#4) (antibody, human IgG1, V domains shown)
VH: EVQLVESGGGLVKPGGSLRLSCAASGFTFSDYYMYWFRQAPGKGLEWVATISDGGSYTYYPDSVKGRFTISRDNAKNSLYLQMSSLRAEDTAVYYCAREENGNFYYFDYWGQGTTVTVSS
VL: DIQMTQSPSSLSASVGDRVTITCKAGQDIKSYLSWYQQKPGKAPKLLIYYATRLADGVPSRFSGSGSGTDYTLTISSLQPEDFATYYCLQHGESPWTFGGGTKLEIKR
notes: Full mature chains with human IgG1 and kappa constant domains; also called hCBE11; pAND076/pAND090
[1]
  Relative MFI: 1 MFI normalized to chCBE11
[2]
  EC50: 0.06 nM

B3: chimeric CBE11 (chCBE11) (antibody, V domains shown)
VH: EVQLVESGGGLVKPGGSLKLSCAASGFTFSDYYMYWFRQTPEKRLEWVATISDGGSYTYYPDSVKGRFTISRDNAKNNLYLQMSSLKSEDTAMYYCVREENGNFYYFDYWGQGTTVTVSS
VL: DIKMTQSPSSMYASLGERVTITCKAGQDIKSYLSWYQQKPWKSPKILIYYATRLADGVPSRFSGSGSGQDYSLTISSLESDDTATYYCLQHGESPWTFGGGTKLEIK
notes: the latter is followed; also called pEAG982/pEAG983
[1]
  Relative MFI: 1 MFI normalized to chCBE11

B4: L2/H3 (VL#2 with VH#3) (antibody, human IgG1, V domains shown)
VH: EVQLVESGGGLVKPGGSLRLSCAASGFTFSDYYMYWVRQAPGKGLEWVATISDGGSYTYYPDSVKGRFTISRDNAKNSLYLQMSSLRAEDTAVYYCAREENGNFYYFDYWGQGTTVTVSS
VL: DIQMTQSPSSLSASVGDRVTITCKAGQDIKSYLSWYQQKPWKAPKILIYYATRLADGVPSRFSGSGSGTDYTLTISSLQPEDFATYYCLQHGESPWTFGGGTKLEIK
notes: Mix and match co-transfection; Human IgG1 / kappa constant regions; also called pAND072/pAND077
[1]
  Relative MFI: 0.42 MFI normalized to chCBE11

B5: huCBE11 #3 (VL#3 with VH#3) (antibody, human IgG1, V domains shown)
VH: EVQLVESGGGLVKPGGSLRLSCAASGFTFSDYYMYWVRQAPGKGLEWVATISDGGSYTYYPDSVKGRFTISRDNAKNSLYLQMSSLRAEDTAVYYCAREENGNFYYFDYWGQGTTVTVSS
VL: DIQMTQSPSSLSASVGDRVTITCKAGQDIKSYLSWYQQKPGKAPKLLIYYATRLADGVPSRFSGSGSGTDYTLTISSLQPEDFATYYCLQHGESPWTFGGGTKLEIK
notes: also called pAND076/pAND077
[1]
  Relative MFI: 0.62 MFI normalized to chCBE11

B6: huCBE11 #2 (VL#2 with VH#2) (antibody, human IgG1, V domains shown)
VH: EVQLVESGGGLVKPGGSLRLSCAASGFTFSDYYMYWFRQAPGKGLEWVATISDGGSYTYYPDSVKGRFTISRDNAKNSLYLQMSSLRAEDTAVYYCVREENGNFYYFDYWGQGTTVTVSS
VL: DIQMTQSPSSLSASVGDRVTITCKAGQDIKSYLSWYQQKPWKAPKILIYYATRLADGVPSRFSGSGSGTDYTLTISSLQPEDFATYYCLQHGESPWTFGGGTKLEIK
notes: also called huCBE#2; pAND072/pAND073
[1]
  Relative MFI: 1 MFI normalized to chCBE11

B7: huCBE11 #1 (VL#1 with VH#1) (antibody, human IgG1, V domains shown)
VH: EVQLVESGGGLVKPGGSLRLSCAASGFTFSDYYMYWFRQTPGKGLEWVATISDGGSYTYYPDSVKGRFTISRDNAKNSLYLQMSSLRAEDTAMYYCVREENGNFYYFDYWGQGTTVTVSS
VL: DIKMTQSPSSLSASVGDRVTITCKAGQDIKSYLSWYQQKPWKAPKILIYYATRLADGVPSRFSGSGSGQDYTLTISSLQPEDFATYYCLQHGESPWTFGGGTKLEIK
notes: also called pAND068/pAND069
[1]
  Relative MFI: 1 MFI normalized to chCBE11

B8: L3/H2 (VL#3 with VH#2) (antibody, human IgG1, V domains shown)
VH: EVQLVESGGGLVKPGGSLRLSCAASGFTFSDYYMYWFRQAPGKGLEWVATISDGGSYTYYPDSVKGRFTISRDNAKNSLYLQMSSLRAEDTAVYYCVREENGNFYYFDYWGQGTTVTVSS
VL: DIQMTQSPSSLSASVGDRVTITCKAGQDIKSYLSWYQQKPGKAPKLLIYYATRLADGVPSRFSGSGSGTDYTLTISSLQPEDFATYYCLQHGESPWTFGGGTKLEIK
notes: Mix and match co-transfection; Human IgG1 / kappa constant regions; also called pAND076/pAND073
[1]
  Relative MFI: 1 MFI normalized to chCBE11
